Test results from publication doi:10.1101/2024.10.14.618141 (bioRxiv, 2024).

B1: CDK12(KiD)/Cyclin K complex (complex)
chain 1: not shown
chain 2: MKENKENSSPSVTSANLDHTKPCWYWDKKDLAHTPSQLEGLDPATEARYRREGARFIFDVGTRLGLHYDTLATGIIYFHRFYMFHSFKQFPRYVTGACCLFLAGKVEETPKKCKDIIKTARSLLNDVQFGQFGDDPKEEVMVLERILLQTIKFDLQVEHPYQFLLKYAKQLKGDKNKIQKLVQMAWTFVNDSLCTTLSLQWEPEIIAVAVMYLAGRLCKFEIQEWTSKPMYRRWWEQFVQDVPVDVLEDICHQILDLYSQGKQQMPHHTPHQLQQPPSLQPTPQVPQVQQSQPSQSSEPSQPQQKDPQQPAQQQQPAQQPKKPSPQPSSPRQVKRAVVVSPKEENKAAEPPPPKIPKIETTHPPLPPAHPPPDRKPPLAAALGEAEPPGPVDATDLPKVQIPPPAHPAPVHQPPPLPHRPPPPPPSSYMTGMSTTSSYMSGEGYQSLQSMMKTEGPSYGALPPAYGPPAHLPYHPHVYPPNPPPPPVPPPPASFPPPAIPPPTPGYPPPPPTYNPNFPPPPPRLPPTHAVPPHPPPGLGLPPASYPPPAVPPGGQPPVPPPIPPPGMPPVGGLGRAAWMR
B2: Flag-GST-RPB1-CTD(1586-1971) (domain or fragment)
chain: GGAMSPSYSPTSPAYEPRSPGGYTPQSPSYSPTSPSYSPTSPSYSPTSPNYSPTSPSYSPTSPSYSPTSPSYSPTSPSYSPTSPSYSPTSPSYSPTSPSYSPTSPSYSPTSPSYSPTSPSYSPTSPSYSPTSPSYSPTSPSYSPTSPSYSPTSPSYSPTSPNYSPTSPNYTPTSPSYSPTSPSYSPTSPNYTPTSPNYSPTSPSYSPTSPSYSPTSPSYSPSSPRYTPQSPTYTPSSPSYSPSSPSYSPTSPKYTPTSPSYSPSSPEYTPTSPKYSPTSPKYSPTSPKYSPTSPTYSPTTPKYSPTSPTYSPTSPVYTPTSPKYSPTSPTYSPTSPKYSPTSPTYSPTSPKGSTYSPTSPGYSPTSPTYSLTSPAISPDDSDEEN

Experiments:
Test in all cases: pull-down
[1] = target: PAF1 complex (five-subunit PAF1C, WT) (human, UniProt Q6PD62;Q6P1J9;Q8WVC0;Q8N7H5;Q9GZS3)
[2] = target: PAF1C-YY/AA (PAF1C containing CDC73-YY/AA) (human, UniProt Q6PD62;Q6P1J9;Q8WVC0;Q8N7H5;Q9GZS3, Y290A | Y293A)
[3] = target: CDK12/Cyclin K complex, full-length (WT) CDK12 (human, UniProt Q9NYV4;O75909)
CDK12/Cyclin K complex, full-length (WT) CDK12, sequence (Q9NYV4 whole entry, one chain of several): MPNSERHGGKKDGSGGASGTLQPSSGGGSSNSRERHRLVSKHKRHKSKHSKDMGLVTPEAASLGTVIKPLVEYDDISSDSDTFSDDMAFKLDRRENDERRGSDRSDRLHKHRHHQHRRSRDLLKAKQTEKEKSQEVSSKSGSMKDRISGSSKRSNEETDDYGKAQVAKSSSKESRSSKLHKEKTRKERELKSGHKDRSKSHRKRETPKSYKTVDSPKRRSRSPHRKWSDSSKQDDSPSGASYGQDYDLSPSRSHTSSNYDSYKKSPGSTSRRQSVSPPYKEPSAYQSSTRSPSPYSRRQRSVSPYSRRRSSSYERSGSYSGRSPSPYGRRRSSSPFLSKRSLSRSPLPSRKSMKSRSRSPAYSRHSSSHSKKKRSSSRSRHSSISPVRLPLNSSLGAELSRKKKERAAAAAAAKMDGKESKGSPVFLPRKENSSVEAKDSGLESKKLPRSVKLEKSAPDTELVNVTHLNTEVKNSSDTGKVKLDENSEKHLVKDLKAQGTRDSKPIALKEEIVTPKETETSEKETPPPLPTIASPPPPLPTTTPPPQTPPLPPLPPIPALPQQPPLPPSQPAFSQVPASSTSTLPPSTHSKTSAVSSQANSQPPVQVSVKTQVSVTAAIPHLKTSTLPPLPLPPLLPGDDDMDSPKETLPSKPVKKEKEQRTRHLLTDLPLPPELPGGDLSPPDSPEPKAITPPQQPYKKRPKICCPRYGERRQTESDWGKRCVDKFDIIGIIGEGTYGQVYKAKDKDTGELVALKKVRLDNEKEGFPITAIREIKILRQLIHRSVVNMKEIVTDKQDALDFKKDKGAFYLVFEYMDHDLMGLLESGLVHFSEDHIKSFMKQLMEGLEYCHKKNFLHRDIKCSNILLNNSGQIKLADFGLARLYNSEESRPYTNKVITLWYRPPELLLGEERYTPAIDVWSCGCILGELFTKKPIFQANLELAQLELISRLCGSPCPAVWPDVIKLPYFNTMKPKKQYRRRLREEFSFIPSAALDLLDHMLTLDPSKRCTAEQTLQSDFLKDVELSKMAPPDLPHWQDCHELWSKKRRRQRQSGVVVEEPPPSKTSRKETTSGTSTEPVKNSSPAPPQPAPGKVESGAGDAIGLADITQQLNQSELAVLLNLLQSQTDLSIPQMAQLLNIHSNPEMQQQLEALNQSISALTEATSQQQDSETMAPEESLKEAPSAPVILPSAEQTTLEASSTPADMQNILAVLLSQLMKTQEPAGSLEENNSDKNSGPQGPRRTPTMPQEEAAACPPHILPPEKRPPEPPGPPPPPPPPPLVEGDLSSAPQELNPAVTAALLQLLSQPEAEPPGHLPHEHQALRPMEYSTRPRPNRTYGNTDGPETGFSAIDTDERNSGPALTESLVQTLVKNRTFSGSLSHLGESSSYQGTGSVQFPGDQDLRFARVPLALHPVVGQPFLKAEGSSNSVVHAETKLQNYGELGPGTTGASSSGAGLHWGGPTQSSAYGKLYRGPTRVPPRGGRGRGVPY

Binder | binding result [1] | binding result [2] | binding result [3]
B1 | binds | binds | –
B2 | – | – | binds
